# From patent publication US7067633B2, “Targeting cellular entry, cell survival, and pathogenicity by dynein light chain 1/PIN in human cells” (Board of Regents, The University of Texas System, priority 2003, dated 2006)
# Tests used:
# [1] = tested on: DLC1/PIN; assay: In vivo 32P-orthophosphate labeling and immunoprecipitation of T7-DLC1/PIN; type: cell-based, human; settings: MCF-7 cells, coexpression with T7-DLC1/PIN
# Procedure: FIGS. 2A–2G—MapDLC1/PINg of interaction domains of Pak1 and DLC1/PIN. FIG. 2A: Identification of Pak1 domains that interact with DLC1/PIN. GST-Pak1 fusion proteins containing wild-type (amino acids 1–545), kinase domain (amino acids 270–545), N-terminal domain (amino acids 1–132), PIX binding domain (amino acids 132–270), Nck-binding domain (amino acids 1–75), Cdc42/Rac-interacting (CRIB) domain (amino acids 52–132), and auto-inhibitory domain (amino acids 75–149) were incubated with in vitro translated DLC1/PIN (amino acids 1–89), and binding was analyzed by GST pull-down assay. FIG. 2B: Identification of the DLC1/PIN region that is involved in the binding of Pak1. GST-fusions of various lengths of DLC1/PIN were used in the GST pull-down assay using ^35S-labelled Pak1 (amino acids 1–545). FIGS. 2C–2G—Pak1 phosphorylation of DLC1/PIN. FIG. 2C: In vitro kinase assay using GST-DLC1/PIN as a substrate and purified bacterially expressed Pak1 as an enzyme. MBP was used as a positive control. FIG. 2D: ZR75R cells stably expressing T7-DLC1/PIN were labeled in vivo with ^32P-orthophosphate, serum starved, treated with EGF or HRG, and immunoprecipitated and phosphorylation status of DLC1/PIN was visualized by autoradiography. […] Cells were metabolically labeled with ^32P orthophosphate, treated with or without EGF (1 nM) and phosphorylation of T7-DLC1/PIN was analyzed by immunoprecipitation. […]
# [2] = tested on: DLC1 promoter; assay: DLC1 promoter luciferase reporter; type: cell-based, human; settings: MCF-7 cells, expression of inhibitor
# Procedure: FIGS. 21A–21J—Estrogenic signals upregulate DLC1 expression via Pak1 pathway. FIG. 21A: DLC1 upregulation by E2 or Tam. MCF-7/Tam-sen, MCF-7/TAMR1 and Ishikawa cells were treated with E2 (10^−9M) or Tam (10^−9M) for 24 h, and cell lysates were assayed for DLC1 and Pak1 protein expression. FIG. 21B: Upregulation of DLC1 mRNA in MCF-7 cells treated with different doses of E2 for 24 h. FIG. 21C: Effect of different periods of E2 treatment and cycloheximide (CHX) and Actinomycin D (ACTD) treatment on the ability of E2 to upregulate DLC1 mRNA in MCF-7 cells. FIG. 21D: DLC1 mRNA and protein levels in MCF-7/DA-Pak1 cells by Northern and Western blotting. FIG. 21E: DLC1 mRNA and protein levels in MCF-7/DN-Pak1 cells by Northern and Western blotting. FIG. 21F: Downregulation of DLC1 protein expression in MCF-7 cells treated with Pak1-siRNA for 24 h. FIG. 21G: Modulation of DLC1 promoter (1245 bp) luc activity by the expression of wtPak1 or DN-Pak1. MCF-7 cells were transfected with DLC1-luc and transfected with either wtPak1 or Pak1 inhibitor 83-149 and luc activity was measured after 24 h. FIG. 21H: Upregulation of DLC1 promoter luc activity following pak1 induction in MCF-7/DA-Pak 1 cells. FIG. 21I: Downegulation of DLC1 promoter luc activity in MCF-7/DN-pak1 cells. […]
# [3] = tested on: Human dendritic cells; assay: Macropinocytosis in dendritic cells, FITC-dextran uptake; type: cell-based; settings: expression in human dendritic cells
# Procedure: (§1) FIG. 16—DLC1 is required for macropinocytosis in dendritic cells. Human dendritic cells were plated on cover sips in 6-well tissue culture plates, transfected with RFP-DLC1 wild type or DLC1-1-66 mutant lacking Pak1 binding and phosphorylation sites. After 12 hours, FITC-dextran was added to the culture medium for 20 min and cells were fixed and stained with Topro-3 (a DNA dye) and analyzed by confocal microscopy for RFP-DLC1 (red) or RFP-DLC1-1-66 (red) and FITC-dextran (green). White arrows point to RFP-DLC1-1-66 transfected cells and red arrows point to cells transfected with RFP-DLC1.
# as §1, with “Human” for “FIG. 16—DLC1 is required for macropinocytosis in dendritic cells. Human”, “slips” for “sips”
# [4] = tested on: SKBR-3 cells; assay: Pak1-mediated macropinocytosis, vesicle formation by confocal microscopy; type: cell-based, human
# Procedure: FIG. 3—Requirement of DLC1/PIN in Pak1 mediated macropinocytosis. SKBR-3 cells were cotransfected with RFP-DLC1/PIN and GFP-Pak1 (upper panel), RFP-DLC1/PIN-S88A, and GFP-Pak1 (middle panel) and RFP-DLC1-1-66, and GFP-Pak1 (lower panel). Vesicle formation and localization of GFP and RFP proteins were analyzed by confocal microscopy. Ten randomly selected fields were analyzed for each condition. The experiment was repeated twice with similar results. Quantitation of vesicles formation was done using the following scoring system. −, cells containing 0–9 vesicles; +, cells containing 10–20 vesicles; and ++, cells containing >20 vesicles.
# Requirement of DLC1/PIN in Pak1 mediated macropinocytosis. […] The inventors have used the fluorescein isothiocyanate (FITC)-labeled Dextran as a marker of endocytosis using a well-established dextran beads uptake assay (Dharmawardhane et al., 2000). […]
# SK-BR3 cells were cotransfected with RFP-DLC1 and GFP-Pak1 (upper panel), RFP-DLC1-S88A and GFP-Pak1 (middle panel), and RFP-DLC8-1-66 and GFP-Pak1 (bottom panel). Vesicle formation and localization of GFP and RFP proteins were analyzed by confocal microscopy. Ten randomly selected fields were analyzed for each condition. […]
# [5] = tested on: ER transactivation (ERE-luc); assay: ERE-luc transactivation assay; type: cell-based, human; settings: compared to the wild type DLC1
# Procedure: MCF-7/DA-Pak1 cells were transfected with ERE-luc, treated with or without Dox for 24 h and then with or without E2 (10^−9M) and/or Tam (10^−8M) for 24 h, and ERE-luc activity was measured. […] FIG. 20D: MCF-7/TAM-Sen and MCF-7/TAMR1 cells were transfected with ERE-luc and treated with E2 or Tam for 24 h and ERE-luc activity was measured. […] FIG. 20L: Ishikawa cells were cotransfected with Pak1 siRNA control or Pak1 siRNA wt and treated with or without Tam (10^−8M) for 24 h and ERE-luc activity was measured.
# Ishikawa and MCF-7/TAMR1 cells were transfected with control or Pak1 siRNA for 48 h and then with ERE-luc for 24 h and treated with E2 (10^−9M) for 24 h and ERE-luc activity was measured. […] Ishikawa cells were treated with control or and Pak1 and DLC siRNA for 48 h and then transfected with ERE-luc and treated with Tam (10^−8M) for 24 h and ERE-luc activity was measured.
molecule,measurement,setting,value
"Pak1 autoinhibitory fragment amino acids 83–189: Pak1 auto inhibitory fragment used as an inhibitor (Pak1 amino acids 83–149) (protein, UniProt Q13153 83-149, looked up, fragment) HTIHVGFDAVTGEFTGMPEQWARLLQTSNITKSEQKKNPQAVLDVLEFYNSKKTSNSQKYMSFTDKS",EGF-stimulated DLC1/PIN phosphorylation,[1],completely blocked
same,DLC1 promoter activity,[2],suppressed
"DLC1-66 peptide: SEQ ID NO:11; DLC1/PIN mutant, amino acids 1–66, lacking the C-terminal 23 amino acids (Pak1 binding and phosphorylation sites) (protein, listed as Homo sapiens) MCDRKAVIKNADMSEEMQQDSVECATQALEKYNIEKDIAAHIKKEFDKKYNPTWHCIVGRNFGSYV",macropinocytic functions,[3],blocks macropinocytic functions
same,transfected cells in which formation of vesicles was completely blocked,[4]; cotransfected with GFP-Pak1,more than 80%
same,macropinocytic functions,[4]; expression in human breast cancer cell line SKBR3,blocks macropinocytic functions
"DLC1 1-68R mutant: DLC1 mutant lacking amino acids 67–89, behaves as a dominant-negative (protein, UniProt P63167 1-66, looked up, fragment) MCDRKAVIKNADMSEEMQQDSVECATQALEKYNIEKDIAAHIKKEFDKKYNPTWHCIVGRNFGSYV",ERE-transactivation in the presence of tamoxifen,[5],reduced ERE-transactivation
